This is an account of results in patent US20230076643A1.

One may read the Kd as the constant that tells how readily two partners part at equilibrium.

For the assay, the target named is T1, CD6 (UniProt P30203).
T1 sequence (looked up): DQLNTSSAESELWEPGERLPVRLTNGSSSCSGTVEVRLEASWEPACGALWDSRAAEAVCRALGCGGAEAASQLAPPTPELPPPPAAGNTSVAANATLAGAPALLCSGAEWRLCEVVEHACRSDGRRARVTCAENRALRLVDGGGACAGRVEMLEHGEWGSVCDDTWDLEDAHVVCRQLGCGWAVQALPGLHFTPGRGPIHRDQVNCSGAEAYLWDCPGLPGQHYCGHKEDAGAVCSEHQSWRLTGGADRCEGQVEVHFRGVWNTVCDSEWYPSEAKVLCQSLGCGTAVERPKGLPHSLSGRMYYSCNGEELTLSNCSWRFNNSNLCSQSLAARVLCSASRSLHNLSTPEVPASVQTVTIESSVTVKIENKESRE
In words: binding assay of FIG. 7 on CAR Tregs; method not described.

B1: CD6 CAR (representative CD6 CAR, expressed on Treg) (protein, part only; not given: hinge, transmembrane and signalling domains, part only)
scFv, part: EVQLVESGGGLVKPGGSLKLSCAASGFKFSRYAMSWVRQAPGKRLEWVATISSGGSYIYYPDSVKGRFTISRDNVKNTLYLQMSSLRSEDTAMYYCARRDYDLDYFDSWGQGTLVTVSSGSTSGGGSGGGSGGGGSSDIQMTQSPSSLSASVGDRVTITCKASRDIRSYLTWYQQKPGKAPKTLIYYATSLADGVPSRFSGSGSGQDYSLTISSLESDDTATYYCLQHGESPFTFGSGTKLEIKRA
B1 came in with a Kd of 50 nM.
